The values that follow come from article PMC11429574, “Biophysical and Solution Structure Analysis of Critical Residues Involved in the Interaction between the PupB N-Terminal Signaling Domain and PupR C-Terminal Cell Surface Signaling Domain from Pseudomonas capeferrum” (Biomolecules, 2024).

T1: PupB N-terminal signaling domain H72D (Pseudomonas capeferrum), P38047
T1 chain: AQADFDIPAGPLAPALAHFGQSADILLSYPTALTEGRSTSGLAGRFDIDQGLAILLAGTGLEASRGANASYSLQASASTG

B1: PupB N-terminal signaling domain Q69K (domain or fragment, Pseudomonas capeferrum)
chain: T1 chain with Q21K, D24H
notes: PupB of Pseudomonas capeferrum, N-terminal signaling domain, 82 residues; also called PupB NTSD Q69K; Q79K (misprint in two places); source: pET41 GST-PupB NTSD plasmid
B2: MBP-PupR C-terminal cell surface signaling domain (domain or fragment, Pseudomonas capeferrum)
chain: QDWRADYHSRIGEQRRLTLADGTQVQLNTDSALNVAFDQQARRLRLVRGEMLITRPALADSRPLWVDTEHGRLESTLAQFNVRLHGQHTQATVYQGSVALQPALHAYPPILLGAGEQASFNQQGLLARQAVAAVAPAWSQGMLVAQGQPLAAFIEDLARYRRGHLACDPALAGLRVSGTFPLENTDKIIAAVAETLQLEVQHFTRYWVTLKPRMA
notes: PupR, inner membrane sigma regulator (anti-sigma factor) of Pseudomonas capeferrum; periplasmic C-terminal cell surface signaling domain; residues A240 to A300 are named as interface residues; A TEV site lies between MBP and the domain; the MBP fusion was used uncleaved in the ITC for solubility and stability; also called MBP-PupR CCSSD; PupR CCSSD; not shown: MBP, N-terminal, kept

Substitutions are numbered along the chain they refer to. Names may count otherwise.

What all share (test): ITC; MBP-PupR CCSSD (140-230 µM) titrated into PupB NTSD mutants (20-70 µM); 15 °C; 25 mM HEPES pH 7.5, 400 mM LiCl, 10% glycerol; triplicate, global single-site analysis (NITPIC, SEDPHAT)
(In ITC the heat of successive injections is recorded.)

The target in assay [1] is B2. Conditions: both partners purified.
Assay [2] deals with B1. Conditions: both partners purified.
The target in assay [3] is T1, PupB N-terminal signaling domain H72D …. The note with it: remark: other sources report otherwise.

As for B1, in assay [1], the Kd (as a rule, the concentration at which binding is half-saturated) amounted to 1.55 µM. That is a single-digit micromolar value.
In the case of B2, in assay [2], the dH was -14.5 kcal/mol. Besides, in assay [3], the Kd is 27.7 µM and the dH was -23 kcal/mol.
